Data reported in PMC10272835 (2023).
No end group written: not given here.

Columns and labels:
Assay in all cases: SPR
dual SH2 domains of SHP2 [1] = biological target: T1, dual SH2 domains of SHP2
T1 chain: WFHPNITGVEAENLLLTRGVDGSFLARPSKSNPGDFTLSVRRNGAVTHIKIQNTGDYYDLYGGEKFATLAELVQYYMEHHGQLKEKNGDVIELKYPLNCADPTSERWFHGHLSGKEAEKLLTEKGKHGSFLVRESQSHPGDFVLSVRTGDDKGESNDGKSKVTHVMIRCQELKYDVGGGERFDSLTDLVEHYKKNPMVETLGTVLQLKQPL

[2] = biological target: T2, C-terminal SH2 domain of SHP2
T2 chain: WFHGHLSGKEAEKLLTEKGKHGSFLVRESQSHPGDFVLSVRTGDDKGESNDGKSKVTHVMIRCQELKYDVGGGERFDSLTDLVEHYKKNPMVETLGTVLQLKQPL

[3] = biological target: T3, N-terminal SH2 domain of SHP2
T3 chain: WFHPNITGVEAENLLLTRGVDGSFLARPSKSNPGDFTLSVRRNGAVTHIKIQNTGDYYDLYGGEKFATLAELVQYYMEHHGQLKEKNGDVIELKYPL

dual SH2 domains of SHP2 [4] = biological target: T1, dual SH2 domains of SHP2
[5] = biological target: T2, C-terminal SH2 domain of SHP2
[6] = biological target: T3, N-terminal SH2 domain of SHP2

B1: phosphorylated PD1 ITIM peptide (peptide)
chain: KEDPSAVPVFSVDYGELDFQWRE
modifications: also: phosphorylated, residue not given here, biotinylated, site not given here
- koff (dual SH2 domains of SHP2 [1]): 0.000121 s⁻¹
- koff [2]: 0.00329 s⁻¹
- koff [3]: 0.000297 s⁻¹
- Kd (dual SH2 domains of SHP2 [4]): 1.84 nM
- Kd [5]: 0.638 nM
- Kd [6]: 3.35 nM

B2: phosphorylated PD1 ITSM peptide (peptide)
chain: KTPEPPVPSVPEQTEYATIVFPSGMGTSS
modifications: also: phosphorylated, residue not given here, biotinylated, position not given here
- Kd (dual SH2 domains of SHP2 [4]): 3.01 nM
- Kd [5]: 15.1 nM
- Kd [6]: 0.442 nM
